# Reference: patent US20240190939A1 (SHATTUCK LABS, published 2024)
# T1: recombinant human CD155PVR (human, UniProt P15151 21-343, limits assumed)
# T1 sequence (looked up): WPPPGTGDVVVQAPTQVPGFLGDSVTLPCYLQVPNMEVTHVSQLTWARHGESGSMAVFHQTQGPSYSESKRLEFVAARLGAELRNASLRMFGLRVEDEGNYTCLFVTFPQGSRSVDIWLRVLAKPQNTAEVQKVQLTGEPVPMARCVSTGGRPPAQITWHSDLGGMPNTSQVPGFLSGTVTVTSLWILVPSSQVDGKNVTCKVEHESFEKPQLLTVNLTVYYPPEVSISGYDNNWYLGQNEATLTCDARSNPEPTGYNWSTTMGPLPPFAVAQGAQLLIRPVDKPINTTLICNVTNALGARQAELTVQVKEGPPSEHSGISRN
# T2: TNFRSF4
# T2 construct: also called TNF Receptor Superfamily Member 4
# T2 chain: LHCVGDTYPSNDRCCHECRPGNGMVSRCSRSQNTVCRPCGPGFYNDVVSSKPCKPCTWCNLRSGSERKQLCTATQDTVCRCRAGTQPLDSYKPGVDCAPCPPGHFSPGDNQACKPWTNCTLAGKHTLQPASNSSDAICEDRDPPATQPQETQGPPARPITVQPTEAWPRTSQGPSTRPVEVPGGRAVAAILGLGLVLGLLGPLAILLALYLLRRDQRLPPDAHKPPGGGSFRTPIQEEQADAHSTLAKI
# T3: PVR (human, UniProt P15151)
# T3 construct: on the microarray of human membrane proteins; also called Poliovirus Receptor
# T3 sequence (looked up): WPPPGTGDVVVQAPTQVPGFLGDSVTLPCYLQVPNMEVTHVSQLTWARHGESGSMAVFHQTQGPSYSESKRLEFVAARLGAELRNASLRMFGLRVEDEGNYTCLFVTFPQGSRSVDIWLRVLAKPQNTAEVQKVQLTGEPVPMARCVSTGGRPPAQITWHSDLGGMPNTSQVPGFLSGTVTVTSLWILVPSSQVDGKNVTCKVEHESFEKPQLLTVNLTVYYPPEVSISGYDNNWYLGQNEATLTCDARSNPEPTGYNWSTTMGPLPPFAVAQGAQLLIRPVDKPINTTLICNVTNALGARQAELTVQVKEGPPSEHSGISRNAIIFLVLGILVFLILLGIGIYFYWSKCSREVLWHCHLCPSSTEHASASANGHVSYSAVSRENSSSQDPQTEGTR
# T4: NECTIN4 (human, UniProt Q96NY8)
# T4 construct: on the microarray of human membrane proteins; also called Nectin Cell Adhesion Molecule 4
# T4 sequence (looked up): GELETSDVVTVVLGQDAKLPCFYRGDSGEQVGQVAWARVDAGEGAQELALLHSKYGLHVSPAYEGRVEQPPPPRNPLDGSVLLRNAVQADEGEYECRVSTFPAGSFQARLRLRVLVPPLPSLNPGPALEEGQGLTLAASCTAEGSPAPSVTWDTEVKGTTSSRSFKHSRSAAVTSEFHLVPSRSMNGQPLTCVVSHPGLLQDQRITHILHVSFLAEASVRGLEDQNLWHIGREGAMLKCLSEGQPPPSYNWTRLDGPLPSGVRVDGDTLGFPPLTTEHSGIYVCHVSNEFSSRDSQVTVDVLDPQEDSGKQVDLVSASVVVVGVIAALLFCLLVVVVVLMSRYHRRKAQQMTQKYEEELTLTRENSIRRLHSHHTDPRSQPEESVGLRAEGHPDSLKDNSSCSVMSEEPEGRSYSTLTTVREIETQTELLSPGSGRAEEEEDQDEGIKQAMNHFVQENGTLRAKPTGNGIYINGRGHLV
# T5: hCD155-Fc (human, UniProt P15151 21-343, limits assumed)
# T5 construct: not shown: Fc, not identified
# T5 sequence (looked up): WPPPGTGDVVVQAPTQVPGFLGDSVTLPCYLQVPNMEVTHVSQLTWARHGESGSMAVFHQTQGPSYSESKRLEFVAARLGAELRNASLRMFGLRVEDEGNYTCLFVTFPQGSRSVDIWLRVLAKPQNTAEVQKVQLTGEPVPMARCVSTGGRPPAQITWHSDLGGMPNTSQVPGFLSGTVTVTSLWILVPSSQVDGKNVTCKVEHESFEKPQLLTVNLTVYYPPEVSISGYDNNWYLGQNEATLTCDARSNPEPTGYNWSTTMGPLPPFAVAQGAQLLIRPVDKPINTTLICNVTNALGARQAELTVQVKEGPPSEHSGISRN
# T6: mouse OX40 on CHO-K1 cells (mouse, UniProt P47741 20-272)
# T6 construct: whole, on cells; also called CHOK1-mOX40
# T6 sequence (looked up): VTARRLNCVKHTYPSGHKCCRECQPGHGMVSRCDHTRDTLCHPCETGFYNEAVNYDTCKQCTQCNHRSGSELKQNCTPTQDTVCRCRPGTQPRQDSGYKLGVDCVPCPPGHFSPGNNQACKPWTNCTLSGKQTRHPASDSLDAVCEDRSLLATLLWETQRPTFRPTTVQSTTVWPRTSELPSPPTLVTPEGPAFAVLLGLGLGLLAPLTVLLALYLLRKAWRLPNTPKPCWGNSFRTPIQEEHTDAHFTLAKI
# T7: mouse CD47 on CHO-K1 cells (mouse, UniProt Q61735 19-303)
# T7 construct: whole, on cells; also called mCD47 engineered cell line; mCD47 over-expressing cell line
# T7 sequence (looked up): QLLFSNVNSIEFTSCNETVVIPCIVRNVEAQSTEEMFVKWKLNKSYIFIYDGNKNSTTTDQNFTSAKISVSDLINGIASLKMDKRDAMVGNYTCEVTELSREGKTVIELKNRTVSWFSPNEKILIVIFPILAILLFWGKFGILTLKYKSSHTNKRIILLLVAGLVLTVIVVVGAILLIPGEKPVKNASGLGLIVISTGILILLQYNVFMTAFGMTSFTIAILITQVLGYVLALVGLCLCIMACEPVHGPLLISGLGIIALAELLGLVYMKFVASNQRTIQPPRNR
# How the values were obtained:
# [1] = molecular target: T1, recombinant human CD155PVR; test: biolayer interferometry (Octet), hPVR; concentration not given
# TNFRSF4 = molecular target: T2, TNFRSF4; test: microarray of about 6,000 human membrane proteins
# PVR = molecular target: T3, PVR; test: microarray of about 6,000 human membrane proteins
# NECTIN4 = molecular target: T4, NECTIN4; test: microarray of about 6,000 human membrane proteins
# Galectin-1 = Galectin-1 (human, UniProt P09382 2-135, limits assumed); test: microarray of about 6,000 human membrane proteins
# Sequence of Galectin-1 (P09382 2-135 limits assumed): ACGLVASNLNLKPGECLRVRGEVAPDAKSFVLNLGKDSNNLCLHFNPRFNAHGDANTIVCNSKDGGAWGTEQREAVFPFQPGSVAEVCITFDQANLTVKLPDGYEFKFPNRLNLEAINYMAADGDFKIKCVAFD
# hCD155-Fc [2] = molecular target: T5, hCD155-Fc; test: ELISA as printed: CD155-Fc capture, goat anti-hOX40L detection, anti-goat HRP (legend says CD155PVR-His capture, IgG detection)
# CD155PVR-His = molecular target: T8, CD155PVR-His; test: ELISA: 'CD115/PVR Capture' as printed (legend: CD155PVR-His), Fc-HRP detection
# T8 construct: ELISA capture protein used with both murine and human chimeras; also called CD155-His
# [3] = molecular target: T6, mouse OX40 on CHO-K1 cells; test: flow cytometry on CHOK1-mOX40 cells
# [4] = molecular target: T9, mouse PVR on CHO-K1 cells (mouse); test: flow cytometry on CHOK1/PVR cells
# T9 construct: whole, on cells; also called CHOK1/PVR; mPVR engineered cell line
# OX40-Fc = molecular target: T10, OX40-Fc; test: Dual ELISA: OX40-Fc capture, CD155-His detection, 6X His HRP (signal needs both OX40-Fc and CD155-His bound)
# T10 construct: Capture protein of the dual ELISA
# CD47-His = molecular target: T11, CD47-His; test: ELISA: CD47-His capture, IgG detection
# T11 construct: ELISA capture protein used with both murine and human chimeras
# [5] = molecular target: T7, mouse CD47 on CHO-K1 cells; test: flow cytometry on CHO-K1 cells expressing murine CD47
# recombinant human LTbR = recombinant human LTbR (human, UniProt P36941 31-227, limits assumed); test: biolayer interferometry (Octet), human LTbR
# Sequence of recombinant human LTbR (P36941 31-227 limits assumed): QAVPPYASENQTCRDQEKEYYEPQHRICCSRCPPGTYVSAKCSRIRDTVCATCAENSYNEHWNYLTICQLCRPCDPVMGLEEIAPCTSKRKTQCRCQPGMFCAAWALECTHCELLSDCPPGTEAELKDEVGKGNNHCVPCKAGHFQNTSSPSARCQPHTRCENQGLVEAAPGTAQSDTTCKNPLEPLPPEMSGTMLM
# hCD155-Fc [6] = molecular target: T5, hCD155-Fc; test: Dual ELISA: hCD155-Fc capture, hLTBR-His detection, 6x His HRP
# human LTBR-His = molecular target: T12, human LTBR-His (human, UniProt P36941 31-227, limits assumed); test: as above
# T12 construct: also called hLTBR-His
# T12 sequence (P36941 31-227 limits assumed): as above
binder,measurement,setting,value
"human TIGIT-Fc-OX40L chimeric protein (Fc fusion, also called hTIGIT-Fc-OX40L) MMTGTIETTGNISAEKGGSIILQCHLSSTTAQVTQVNWEQQDQLLAICNADLGWHISPSFKDRVAPGPGLGLTLQSLTVNDTGEYFCIYHTYPDGTYTGRIFLEVLESSVAEHGARFQIPSKYGPPCPPCPAPEFLGGPSVFLFPPKPKDQLMISRTPEVTCVVVDVSQEDPEVQFNWYVDGVEVHNAKTKPREEQFNSTYRVVSVLTVLHQDWLSGKEYKCKVSSKGLPSSIEKTISNATGQPREPQVYTLPPSQEEMTKNQVSLTCLVKGFYPSDIAVEWESNGQPENNYKTTPPVLDSDGSFFLYSRLTVDKSRWQEGNVFSCSVLHEALHNHYTQKSLSLSLGKIEGRMDQVSHRYPRIQSIKVQFTEYKKEKGFILTSQKEDEIMKVQNNSVIINCDGFYLISLKGYFSQEVNISLHYQKDEEPLFQLKKVRSVNSLMVASLTYKDKVYLNVTTDNTSLDDFHVNGGELILIHQNPGEFCVL",binding result,[1],binds
same,binding result,TNFRSF4,binds
same,binding result,PVR,binds
same,binding result,NECTIN4,binds
same,binding result,Galectin-1,binds
same,binding result,hCD155-Fc [2],binds
murine TIGIT-Fc-OX40L chimeric protein (Fc fusion) chain 1: TIDTKRNISAEEGGSVILQCHFSSDTAEVTQVDWKQQDQLLAIYSVDLGWHVASVFSDRVVPGPSLGLTFQSLTMNDTGEYFCTYHTYPGGIYKGRIFLKVQESSDDRNGLAQFQTAPLG chain 2: SSSPAKDPPIQRLRGAVTRCEDGQLFISSYKNEYQTMEVQNNSVVIKCDGLYIIYLKGSFFQEVKIDLHFREDHNPISIPMLNDGRRIVFTVVASLAFKDKVYLTVNAPDTLCEHLQINDGELIVVQLTPGYCAPEGSYHSTVNQVPL,EC50 (read off the curve),CD155PVR-His,~4 nM
same,EC50,[3],1.7 nM
same,EC50,[4],4.63 nM
same,EC50 (read off the curve),OX40-Fc,~8 nM
murine CD172a(SIRPα)-Fc-LIGHT chimeric protein (Fc fusion) chain 1: KELKVTQPEKSVSVAAGDSTVLNCTLTSLLPVGPIRWYRGVGPSRLLIYSFAGEYVPRIRNVSDTTKRNNMDFSIRISNVTPADAGIYYCVKFQKGSSEPDTEIQSGGGTEVYVLAKPSPPEVSGPADRGIPDQKVNFTCKSHGFSPRNITLKWFKDGQELHPLETTVNPSGKNVSYNISSTVRVVLNSMDVNSKVICEVAHITLDRSPLRGIANLSNFIRVSPTVKVTQQSPTSMNQVNLTCRAERFYPEDLQLIWLENGNVSRNDTPKNLTKNTDGTYNYTSLFLVNSSAHREDVVFTCQVKHDQQPAITRNHTVLGFAHSSDQGSMQTFPDNNATHNWN chain 2: LHQRLGDIVAHLPDGGKGSWEKLIQDQRSHQANPAAHLTGANASLIGIGGPLLWETRLGLAFLRGLTYHDGALVTMEPGYYYVYSKVQLSGVGCPQGLANGLPITHGLYKRTSRYPKELELLVSRRSPCGRANSSRVWWDSSFLGGVVHLEAGEEVVVRVPGNRLVRPRDGTRSYFGAFMV,EC50 (read off the curve),CD47-His,~4 nM
same,EC50,[5],18 nM
"human TIGIT-Fc-LIGHT chimeric protein (Fc fusion, also called hTIGIT-Fc-LIGHT; hTIGIT-1-Fc-LIGHT) MMTGTIETTGNISAEKGGSIILQCHLSSTTAQVTQVNWEQQDQLLAICNADLGWHISPSFKDRVAPGPGLGLTLQSLTVNDTGEYFCIYHTYPDGTYTGRIFLEVLESSVAEHGARFQIPSKYGPPCPPCPAPEFLGGPSVFLFPPKPKDQLMISRTPEVTCVVVDVSQEDPEVQFNWYVDGVEVHNAKTKPREEQFNSTYRVVSVLTVLHQDWLSGKEYKCKVSSKGLPSSIEKTISNATGQPREPQVYTLPPSQEEMTKNQVSLTCLVKGFYPSDIAVEWESNGQPENNYKTTPPVLDSDGSFFLYSRLTVDKSRWQEGNVFSCSVLHEALHNHYTQKSLSLSLGKIEGRMDLQLHWRLGEMVTRLPDGPAGSWEQLIQERRSHEVNPAAHLTGANSSLTGSGGPLLWETQLGLAFLRGLSYHDGALVVTKAGYYYIYSKVQLGGVGCPLGLASTITHGLYKRTPRYPEELELLVSQQSPCGRATSSSRVWWDSSFLGGVVHLEAGEKVVVRVLDERLVRLRDGTRSYFGAFMV",binding result,[1],binds
same,binding result,recombinant human LTbR,binds
same,binding result,hCD155-Fc [6],binds
same,binding result,human LTBR-His,binds
